Measurements from patent US20190241648A1 (STATEN BIOTECHNOLOGY B V, published 2019).
Ends that are not written are not given here.

How the values were obtained:
Test in all cases: cyclic peptide substitution array
ApoC3 peptide D68L = target: T1, ApoC3 peptide D68L (human, cyclic (thioether))
T1 peptide: DKFSEFWDLLPEV
Summary of the method: (§1)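 Peptide microarrays incubated with antibody samples, then stained with goat anti-human IgG (Fc) DyLight680 and anti-HA DyLight800 control antibodies, scanned at intensity 7/7 (red/green). Secondary-only pre-stain checked background binding; framing HA peptides served as quality control; substitution effects read as changes in spot intensity.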

ApoC3 peptide E70A = target: T2, ApoC3 peptide E70A (human, cyclic (thioether))
T2 peptide: DKFSEFWDLDPAV
Summary of the method: as §1

ApoC3 peptide D59G = target: T3, ApoC3 peptide D59G (human, thioether (positions not given here); not fully specified (C-terminus, bridges))
T3 peptide: GKFSEFWDLDPEV
Summary of the method: as §1

ApoC3 peptide K60D = target: T4, ApoC3 peptide K60D (human, thioether (positions not given here); not fully specified (bridges); also: cyclic (thioether), positions not given here)
T4 peptide: DDFSEFWDLDPEV
Summary of the method: as §1

ApoC3 peptide D66Q = target: T5, ApoC3 peptide D66Q (human, not fully specified; cyclic (thioether))
T5 peptide: DKFSEFWQLDPEV
Summary of the method: as §1

ApoC3 peptide D66I = target: T6, ApoC3 peptide D66I (human, not fully specified; cyclic (thioether))
T6 peptide: DKFSEFWILDPEV
Summary of the method: as §1

ApoC3 peptide F64V = target: T7, ApoC3 peptide F64V (human, thioether (positions not given here); not fully specified (bridges); also: cyclic (thioether), positions not given here)
T7 peptide: DKFSEVWDLDPEV
Summary of the method: as §1

ApoC3 peptide K60L = target: T8, ApoC3 peptide K60L (human, cyclic (thioether))
T8 peptide: DLFSEFWDLDPEV
Summary of the method: as §1

ApoC3 peptide D59I = target: T9, ApoC3 peptide D59I (human, thioether (positions not given here); not fully specified (C-terminus, bridges))
T9 peptide: IKFSEFWDLDPEV
Summary of the method: as §1

ApoC3 peptide E70L = target: T10, ApoC3 peptide E70L (human, cyclic (thioether))
T10 peptide: DKFSEFWDLDPLV
Summary of the method: as §1

ApoC3 peptide F64H = target: T11, ApoC3 peptide F64H (human, thioether (positions not given here); not fully specified (bridges); also: cyclic (thioether), positions not given here)
T11 peptide: DKFSEHWDLDPEV
Summary of the method: as §1

ApoC3 peptide W65I = target: T12, ApoC3 peptide W65I (human, cyclic (thioether))
T12 peptide: DKFSEFIDLDPEV
Summary of the method: as §1

ApoC3 peptide F64C = target: T13, ApoC3 peptide F64C (human, cyclic (thioether))
T13 peptide: DKFSECWDLDPEV
Summary of the method: as §1

ApoC3 peptide L67C = target: T14, ApoC3 peptide L67C (human, cyclic (thioether))
T14 peptide: DKFSEFWDCDPEV
Summary of the method: as §1

ApoC3 peptide D66F = target: T15, ApoC3 peptide D66F (human, not fully specified; cyclic (thioether))
T15 peptide: DKFSEFWFLDPEV
Summary of the method: as §1

ApoC3 peptide D68K = target: T16, ApoC3 peptide D68K (human, cyclic (thioether))
T16 peptide: DKFSEFWDLKPEV
Summary of the method: as §1

ApoC3 peptide D59R = target: T17, ApoC3 peptide D59R (human, thioether (positions not given here); not fully specified (C-terminus, bridges); also: cyclised via thioether between a C-terminal Cys and a modified N-terminus, the Cys and the N-terminal …)
T17 peptide: RKFSEFWDLDPEV
Summary of the method: as §1

ApoC3 peptide E70I = target: T18, ApoC3 peptide E70I (human, cyclic (thioether))
T18 peptide: DKFSEFWDLDPIV
Summary of the method: as §1

ApoC3 peptide S62M = target: T19, ApoC3 peptide S62M (human, thioether (positions not given here); also: cyclic (thioether), ring places not given here)
T19 peptide: DKFMEFWDLDPEV
Summary of the method: as §1

ApoC3 peptide W65Y = target: T20, ApoC3 peptide W65Y (human, cyclic (thioether))
T20 peptide: DKFSEFYDLDPEV
Summary of the method: as §1

ApoC3 peptide F64D = target: T21, ApoC3 peptide F64D (human, cyclic (thioether))
T21 peptide: DKFSEDWDLDPEV
Summary of the method: as §1

ApoC3 peptide L67P = target: T22, ApoC3 peptide L67P (human, thioether (positions not given here); not fully specified (bridges); also: thioether between a C-terminal Cys side chain and a modified N-terminus, the Cys is not in the chain)
T22 peptide: DKFSEFWDPDPEV
Summary of the method: as §1

ApoC3 peptide K60H = target: T23, ApoC3 peptide K60H (human, cyclic (thioether))
T23 peptide: DHFSEFWDLDPEV
Summary of the method: as §1

ApoC3 peptide D59P = target: T24, ApoC3 peptide D59P (human, thioether (positions not given here); not fully specified (C-terminus, bridges); also: cyclised via thioether between a C-terminal Cys and a modified N-terminus, the Cys and the N-terminal …)
T24 peptide: PKFSEFWDLDPEV
Summary of the method: as §1

ApoC3 peptide W65T = target: T25, ApoC3 peptide W65T (human, cyclic (thioether))
T25 peptide: DKFSEFTDLDPEV
Summary of the method: as §1

ApoC3 peptide D66K = target: T26, ApoC3 peptide D66K (human, not fully specified; cyclic (thioether))
T26 peptide: DKFSEFWKLDPEV
Summary of the method: as §1

ApoC3 peptide V71T = target: T27, ApoC3 peptide V71T (human, not fully specified; cyclic (thioether))
T27 peptide: DKFSEFWDLDPET
Summary of the method: as §1

ApoC3 peptide L67A = target: T28, ApoC3 peptide L67A (human, not fully specified; cyclic (thioether))
T28 peptide: DKFSEFWDADPEV
Summary of the method: as §1

ApoC3 peptide S62D = target: T29, ApoC3 peptide S62D (human, not fully specified; cyclic (thioether))
T29 peptide: DKFDEFWDLDPEV
Summary of the method: as §1

ApoC3 peptide S62Q = target: T30, ApoC3 peptide S62Q (human, thioether (positions not given here); also: cyclic (thioether), ring places not given here)
T30 peptide: DKFQEFWDLDPEV
Summary of the method: as §1

B1: Llama antibody 5E5 (antibody, V domains shown)
VH: QLQLVESGGGLVQPGGSLRLSCAASGFTFGTYSMRWVRQVPRKALEWVSSISTDGGGTAYRDSVKGRFTISRDNAKNTLYLQMNNLKPEDTAIYYCVIAGYSDWGQGTQVTVSS
VL: ATMLTQSPGSLSVVPGESASISCKTSQGLVHSDGKTYFYWFLQKPGQSPQQLIYQVSNRASGVPDRFTGSGSGTDFTLKISGVKAEDAGVYYCAQGTYYPHTFGSGTRLEIK
notes: detected with goat anti-human IgG (Fc); also called mAb 5E5
% of binding to wild-type peptide (ApoC3 peptide D68L): 0%
% of binding to wild-type peptide (ApoC3 peptide E70A): 50%
% of binding to wild-type peptide (ApoC3 peptide D59G): 60.3%
% of binding to wild-type peptide (ApoC3 peptide K60D): 200%
% of binding to wild-type peptide (ApoC3 peptide D66Q): 0%
% of binding to wild-type peptide (ApoC3 peptide D66I): 0%
% of binding to wild-type peptide (ApoC3 peptide F64V): 117%
% of binding to wild-type peptide (ApoC3 peptide K60L): 107%
% of binding to wild-type peptide (ApoC3 peptide D59I): 49.1%
% of binding to wild-type peptide (ApoC3 peptide E70L): 59.1%
% of binding to wild-type peptide (ApoC3 peptide F64H): 84.5%
% of binding to wild-type peptide (ApoC3 peptide W65I): 0%
% of binding to wild-type peptide (ApoC3 peptide F64C): 51%
% of binding to wild-type peptide (ApoC3 peptide L67C): 0%
% of binding to wild-type peptide (ApoC3 peptide D66F): 0%
% of binding to wild-type peptide (ApoC3 peptide D68K): 0.04%
% of binding to wild-type peptide (ApoC3 peptide D59R): 43.3%
% of binding to wild-type peptide (ApoC3 peptide E70I): 65.6%
% of binding to wild-type peptide (ApoC3 peptide S62M): 0%
% of binding to wild-type peptide (ApoC3 peptide W65Y): 0%
% of binding to wild-type peptide (ApoC3 peptide F64D): 259%
% of binding to wild-type peptide (ApoC3 peptide L67P): 25.5%
% of binding to wild-type peptide (ApoC3 peptide K60H): 116%
% of binding to wild-type peptide (ApoC3 peptide D59P): 69.3%
% of binding to wild-type peptide (ApoC3 peptide W65T): 0%
% of binding to wild-type peptide (ApoC3 peptide D66K): 0%
% of binding to wild-type peptide (ApoC3 peptide V71T): 96.7%
% of binding to wild-type peptide (ApoC3 peptide L67A): 21%
% of binding to wild-type peptide (ApoC3 peptide S62D): 0%
% of binding to wild-type peptide (ApoC3 peptide S62Q): 1.13%
